Laboratory results as given in US20210046117A1.
Where two headings read alike, the source gives them in different places.

Key:
[1] = target: CD19 on CD19+ Raji B cells (UniProt P15391); experiment: cell-based or functional assay
[2] = target: CD19 on CD19+ Raji B cells (UniProt P15391); experiment: cell-based or functional assay; remark: listed apart in the source

UniProt P15391, sequence (P15391 20-556 limits assumed): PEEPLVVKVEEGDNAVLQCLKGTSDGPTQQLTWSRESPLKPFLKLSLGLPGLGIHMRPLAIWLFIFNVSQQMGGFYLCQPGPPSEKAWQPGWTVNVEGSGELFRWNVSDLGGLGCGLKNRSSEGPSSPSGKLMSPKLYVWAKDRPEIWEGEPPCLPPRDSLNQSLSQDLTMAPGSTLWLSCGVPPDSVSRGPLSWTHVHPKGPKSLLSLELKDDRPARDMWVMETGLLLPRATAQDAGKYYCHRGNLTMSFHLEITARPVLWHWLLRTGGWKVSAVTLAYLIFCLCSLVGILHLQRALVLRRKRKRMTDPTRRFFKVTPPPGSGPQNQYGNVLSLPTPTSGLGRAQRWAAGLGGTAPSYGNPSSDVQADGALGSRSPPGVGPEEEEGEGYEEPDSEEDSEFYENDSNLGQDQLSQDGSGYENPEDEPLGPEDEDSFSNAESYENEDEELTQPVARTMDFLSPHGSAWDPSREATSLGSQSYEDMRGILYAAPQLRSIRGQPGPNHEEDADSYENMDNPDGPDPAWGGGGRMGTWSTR

In the case of “anti-CD19 CAR (anti-CD19 CAR cassette as described in WO 2012/079000) (receptor)”, the activated cells in the population (CD25 and CD69 activation markers, flow cytometry, 24h co-culture) [1] is reported as 0.9 to 84.8% and the activated cells in the population (CD25 and CD69 activation markers, flow cytometry, 24h co-culture) [2] is reported as 3.9 to 12.1%.
